Reference: paper PMC7919418
Read-outs that look alike come from different tables or passages of the source.

B1: 35-nt ssRNA (ssRNA)
RNA: CUCAUCUUGGUCGUACGCGGAAUAGUUUAAACUGU
B2: 25-bp dsDNA (dsDNA)
DNA 1: ACGCTCAAGTCAGAGGTGGCGAAAC
DNA 2: GTTTCGCCACCTCTGACTTGAGCGT
B3: 35-bp dsRNA (dsRNA)
RNA 1: B1 RNA
RNA 2: ACAGUUUAAACUAUUCCGCGUACGACCAAGAUGAG

Assays:
[1] = biological target: T1, SFiNX[wild type] (Panx-Nxf2-Nxt1-Ctp) (Drosophila melanogaster, UniProt Q9W2H9;Q9VV73;Q9V3H8;Q24117 263-541;541-841;1-133;1-89); assay: EMSA
[2] = biological target: T1, SFiNX[wild type] (Panx-Nxf2-Nxt1-Ctp); assay: EMSA; remark: listed apart in the source

T1 sequence (Q9W2H9 263-541, chain 1 of 3): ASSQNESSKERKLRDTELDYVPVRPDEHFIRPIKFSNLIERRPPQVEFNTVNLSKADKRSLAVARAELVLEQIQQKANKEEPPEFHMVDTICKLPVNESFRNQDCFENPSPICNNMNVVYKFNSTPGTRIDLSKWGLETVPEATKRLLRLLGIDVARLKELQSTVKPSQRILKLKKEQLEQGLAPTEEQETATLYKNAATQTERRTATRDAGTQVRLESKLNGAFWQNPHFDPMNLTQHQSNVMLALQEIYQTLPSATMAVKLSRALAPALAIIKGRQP
T1 sequence (Q9VV73 541-841, chain 2 of 3): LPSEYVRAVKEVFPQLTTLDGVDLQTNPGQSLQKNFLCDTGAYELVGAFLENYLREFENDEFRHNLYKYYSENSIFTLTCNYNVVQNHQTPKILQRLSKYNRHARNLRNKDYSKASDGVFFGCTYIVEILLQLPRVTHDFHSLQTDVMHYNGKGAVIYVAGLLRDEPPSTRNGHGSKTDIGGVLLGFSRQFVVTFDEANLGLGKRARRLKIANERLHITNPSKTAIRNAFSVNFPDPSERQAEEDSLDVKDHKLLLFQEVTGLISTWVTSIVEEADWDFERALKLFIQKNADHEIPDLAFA
T1 sequence (Q24117 whole entry, chain 4 of 3): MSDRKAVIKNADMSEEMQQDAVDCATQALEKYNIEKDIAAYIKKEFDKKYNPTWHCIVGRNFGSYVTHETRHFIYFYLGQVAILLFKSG

Row | Binder | binding result [1] | binding result [2]
1 | B1 | binds | 
2 | B2 |  | binds
3 | B3 |  | binds
